{
  "source": "patent US20150165065A1",
  "about": "(AVIDBIOTICS, published 2015)",
  "molecules": {"B1": {"name": "MICA-α3-iFv.2 (designed binder)", "chain": "EPHSLRYNLTVLSWDGSVQSGFLTEVHLDGQPFLRCDRQKCRAKPQGQWAEDVLGNKTWDRETRDLTGNGKDLRMTLAHIKDQKEGLHSLQEIRVCEIHEDNSTRSSQHFYYDGELFLSQNLETKEWTMPQSSRAQTLAMNVRNFLKEDAMKTKTHYHAMHADCLQELRRYLKSGVVLRRTVPPMVQVTRSEASGGSGDRVTITCRASQDVSTAVAWYQQKPGKAPKLLIYSASFLYSGVPSRFSGSGSGTDFTLTISSLQPEDFATYYCQQSYTTPPTFGQGTKVEIKGGSSRSSSSGGGGSGGGGEVQLVESGGGLVQPGGSLRLSCAASGFTFTSTGISWVRQAPGKGLEWVGRIYPTNGSTNYADSVKGRFTISADTSKNTAYLQMNSLRAEDTAVYYCARTYGIYDLYVDYTEYVMDYWGQGTLVTVSSGGSSRSSSSGGGGSGGGGDIQMTQSPSSLSASGGSGQITVTCRASGFYPWNITLSWRQDGVSLSHDTQQWGDVLPDGQGTYQTWVATRISQGEEQRFTCYMEHSGQHSTHPVPSGKGSHHHHHH"}, "B2": {"name": "MICA-α3-iFv.1 (designed binder)", "chain": "EPHSLRYNLTVLSWDGSVQSGFLTEVHLDGQPFLRCDRQKCRAKPQGQWAEDVLGNKTWDRETRDLTGNGKDLRMTLAHIKDQKEGLHSLQEIRVCEIHEDNSTRSSQHFYYDGELFLSQNLETKEWTMPQSSRAQTLAMNVRNFLKEDAMKTKTHYHAMHADCLQELRRYLKSGVVLRRTVPPMVQVTRSEASGDRVTITCRASQDVSTAVAWYQQKPGKAPKLLIYSASFLYSGVPSRFSGSGSGTDFTLTISSLQPEDFATYYCQQSYTTPPTFGQGTKVEIKGGSSRSSSSGGGGSGGGGEVQLVESGGGLVQPGGSLRLSCAASGFTFTSTGISWVRQAPGKGLEWVGRIYPTNGSTNYADSVKGRFTISADTSKNTAYLQMNSLRAEDTAVYYCARTYGIYDLYVDYTEYVMDYWGQGTLVTVSSGGSSRSSSSGGGGSGGGGDIQMTQSPSSLSASGQITVTCRASGFYPWNITLSWRQDGVSLSHDTQQWGDVLPDGQGTYQTWVATRISQGEEQRFTCYMEHSGQHSTHPVPSGKGSHHHHHH"}},
  "key": {"FGFR3 (coated on wells) [1]": {"target": "FGFR3 (coated on wells) (UniProt P22607)", "assay": "ELISA on FGFR3-coated wells after 1 hour at 60 C and 1 hour back at room temperature [panel A]"}, "FGFR3 (coated on wells) [2]": {"target": "T1, FGFR3 (coated on wells) (UniProt P22607 23-375, limits assumed)", "T1 construct": "Coated at 2 ug/ml on Maxisorp plates; also called Fibroblast Growth Factor Receptor 3", "T1 sequence (looked up)": "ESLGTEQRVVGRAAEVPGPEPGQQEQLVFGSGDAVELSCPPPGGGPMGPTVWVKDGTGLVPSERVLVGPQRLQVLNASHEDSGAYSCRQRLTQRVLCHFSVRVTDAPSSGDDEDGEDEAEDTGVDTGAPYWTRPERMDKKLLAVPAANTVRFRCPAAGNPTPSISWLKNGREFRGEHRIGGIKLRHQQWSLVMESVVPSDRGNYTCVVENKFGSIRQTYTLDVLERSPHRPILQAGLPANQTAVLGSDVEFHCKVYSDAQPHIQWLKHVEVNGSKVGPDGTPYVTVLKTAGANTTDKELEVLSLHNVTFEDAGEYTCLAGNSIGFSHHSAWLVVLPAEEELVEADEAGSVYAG", "assay": "ELISA on FGFR3-coated wells (2 ug/ml), bound sMICA detected with NKG2D-Fc and anti-Fc-HRP", "experimental": "The purified MICA-α3-iFv proteins were tested in a FGFR3-binding ELISA to confirm simultaneous binding to the FGFR3 target and the NKG2D receptor. FGFR3 in phosphate buffered saline (PBS) was coated onto Maxisorp plates at 2 ug/ml concentration. Each MICA protein was titrated, allowed to bind FGFR3 for 1 hour, and washed to remove unbound sMICA protein. The bound MICA-α3-iFv protein was detected using NKG2D-Fc and anti-Fc-HRP conjugate."}, "FGFR3 (coated on wells) [3]": {"target": "T1, FGFR3 (coated on wells)", "assay": "ELISA on FGFR3-coated wells after 1 hour at 80 C and 1 hour back at room temperature [panel B]"}},
  "data": [
    {"molecule": "MICA-scFv (traditional scFv constructed from MAbR3 fused to the C-terminus of soluble MICA) (from UniProt Q29983 24-307) (designed binder)", "values": [
      {"measurement": "EC50 (read off the curve)", "setting": "FGFR3 (coated on wells) [1]", "result": 5, "unit": "nM"}
    ]},
    {"molecule": "B1", "values": [
      {"measurement": "EC50 (read off the curve)", "setting": "FGFR3 (coated on wells) [2]", "result": "~2", "unit": "nM"},
      {"measurement": "EC50 (read off the curve)", "setting": "FGFR3 (coated on wells) [3]", "result": "~5", "unit": "nM"}
    ]},
    {"molecule": "B2", "values": [
      {"measurement": "EC50 (read off the curve)", "setting": "FGFR3 (coated on wells) [2]", "result": "~1", "unit": "nM"}
    ]}
  ]
}
